Measurements taken from patent US20250218531A1 (ABSCI, published 2025).

Target: T1, human vascular endothelial growth factor A (VEGF-A) (human, UniProt P15692 220-313)
T1 sequence: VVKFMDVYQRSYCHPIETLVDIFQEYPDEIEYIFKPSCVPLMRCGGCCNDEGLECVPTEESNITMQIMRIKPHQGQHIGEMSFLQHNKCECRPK
Assay: SPR, Fab format

B1: De novo ranibizumab HCDR3 variant ASGNFSYPDDYGMDW (SEQ ID NO: 50) (Fab, V domains shown)
VH: EVQLVESGGGLVQPGGSLRLSCAASGYDFTHYGMNWVRQAPGKGLEWVGWINTYTGEPTYAADFKRRFTFSLDTSKSTAYLQMNSLRAEDTAVYYCASGNFSYPDDYGMDWWGQGTLVTVSS
VL: DIQLTQSPSSLSASVGDRVTITCSASQDISNYLNWYQQKPGKAPKVLIYFTSSLHSGVPSRFSGSGSGTDFTLTISSLQPEDFATYYCQQYSTVPWTFGQGTKVEIKR
Kd: 0.0482 µM
